Test system: femoral fractures of ‘2-mo’ mice
Assay: Hydrogels containing recombinant Csf1 applied to femoral fractures of young mice (μCT and flow cytometry)
Assay type: in vivo, mouse
Conditions: 5 μg recombinant Csf1 in hydrogel, versus PBS
Text: We also tested whether these increases in Csf1 affected bone maintenance and regeneration. […] Unexpectedly, however, femora harvested from transgenic mice at post-fracture day-21 had decreased mechanical strength compared to wild-type controls despite having increased BMD and similar callus volume (FIG. 3p-q & FIG. 11g). […] In total, SSC lineage derived Csf1 might drive increased bone resorption by stimulating higher osteoclast activity, and this activity needs to be maintained and finely balanced for proper bone health.
Bi-cortical femoral fracture: Animals were anaesthetized using aerosolized isoflurane and analgesia was administered before incision. The femur was exposed following muscle distraction and lateral dislocation of the patella. […]
Micro-computed tomography: Femora were harvested and cleaned of soft tissue. […] Reconstructed samples were analyzed using CT Analyser and CTvox software (Bruker). Trabecular bone parameters of uninjured femur bones were assessed by analyzing a region of 200 sections which was defined 50 sections distal of the end of the growth plate. Fracture calluses were analyzed by selecting 150 sections in both directions of the fracture gap yielding a total area of 300 sections. […]

B1: recombinant Csf1: recombinant Csf1 (5 μg) in hydrogel with defined release kinetics, applied to fractures (protein, UniProt P07141 33-552, looked up)
Macrophage colony-stimulating …: KEVSEHCSHMIGNGHLKVLQQLIDSQMETSCQIAFEFVDQEQLDDPVCYLKKAFFLVQDIIDETMRFKDNTPNANATERLQELSNNLNSCFTKDYEEQNKACVRTFHETPLQLLEKIKNFFNETKNLLEKDWNIFTKNCNNSFAKCSSRDVVTKPDCNCLYPKATPSSDPASASPHQPPAPSMAPLAGLAWDDSQRTEGSSLLPSELPLRIEDPGSAKQRPPRSTCQTLESTEQPNHGDRLTEDSQPHPSAGGPVPGVEDILESSLGTNWVLEEASGEASEGFLTQEAKFSPSTPVGGSIQAETDRPRALSASPFPKSTEDQKPVDITDRPLTEVNPMRPIGQTQNNTPEKTDGTSTLREDHQEPGSPHIATPNPQRVSNSATPVAQLLLPKSHSWGIVLPLGELEGKRSTRDRRSPAELEGGSASEGAARPVARFNSIPLTDTGHVEQHEGSSDPQIPESVFHLLVPGIILVLLTVGGLLFYKWKWRSHRDPQTLDSSVGRPEDSSLTQDEDRQVELPV
modifications: in hydrogel
notes: recombinant Csf1 (5 μg) in hydrogel with defined release kinetics, applied to fractures
Fracture healing (μCT of day-10 calluses): impaired healing
SSC frequency at day-10 (flow cytometry): without alteration of SSC frequency

Source: patent US20240181135A1, “BIOCHEMICAL ACTIVATION OF DYSFUNCTIONAL SKELETAL STEM CELLS FOR SKELETAL REGENERATION” (The Board of Trustees of the Leland Stanford Junior …, priority 2021, published 2024)
